Experimental data taken from the supplement of paper PMC12764529.
± gives the half width of the 95% confidence interval.

Legend:
[1] = folding stability dG unfold from trypsin proteolysis; higher = more stable
Summary of the method: (§1)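 Mini-proteins designed to be under 80 residues and free of cysteine were carried in a PA-tagged cDNA display construct and digested with trypsin and with chymotrypsin. Each protease was applied at 11 threefold-diluted concentrations, alongside a no-protease condition, before sequencing. K50 came from Bayesian fitting of the sequencing counts, and unfolding free energy was obtained by comparing it with a sequence-predicted unfolded-state K50 and a shared folded-state K50, for each protease separately or for both together. Designs were retained only if their AlphaFold2 dimer inter-PAE exceeded 15.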

[2] = folding stability dG unfold from chymotrypsin proteolysis; higher = more stable
Summary of the method: as §1

[3] = folding stability dG unfold (combined trypsin and chymotrypsin); higher = more stable
Summary of the method: as §1

Sequence | folding stability dG unfold [1] | folding stability dG unfold [2] | folding stability dG unfold [3]
SAGGSAGGSSPDNKPVPPRFMIHVEIEPIKIPPEMREAAKDDPDNIDEIYVITIDVYFVGDDFSAGGSAGGS [r12_196_TrROS] | 2.22 ± 0.063 kcal/mol | 2.81 ± 0.07 kcal/mol | 2.58 ± 0.074 kcal/mol
SAMTKLVEFDSEEEYEAAVKAAAAAGESVLARLKDPSGTYTVVEVEVDPETGTVTVKKTEKVPVDGSLGSAG [r14_455_JUSTAS] | 0.622 ± 0.018 kcal/mol | 1.37 ± 0.027 kcal/mol | 1.14 ± 0.042 kcal/mol
SAGGSAGGSAISIMIDDPDDLELAEEIANNIRDHFPDFPIKVEVERMPGNPDYYMIRVEWESAGGSAGGSAG [r3_131_TrROS] | 1.79 ± 0.073 kcal/mol | 1.52 ± 0.042 kcal/mol | 1.66 ± 0.096 kcal/mol
SAGGSAGGSAGGPVVIRLKVDMSPEEVEALAKELASLPNVKVEWDEESRVLTVTLSEEDLSAGGSAGGSAGG [r7_219_TrROS_Hall] | 2.46 ± 0.09 kcal/mol | 2.98 ± 0.056 kcal/mol | 2.72 ± 0.099 kcal/mol
SAGGKPPNLKIKIEVIPIPNGYWIITFRIKVPPNEPLKIRFPDFGREIEFPPGDEVTIMILIPPDDLSAGGS [r16_56_TrROS] | 3.64 ± 0.2 kcal/mol | 4.8 ± 0.2 kcal/mol | 4.62 ± 0.35 kcal/mol
SAGGSFKIHWFDDPEAAEEAAKDMDPGKIIILPDPKNPKYYIVIVVKDKIFRYEIDNGNIKIEPIPSAGGSA [r2_280_TrROS] | 1.86 ± 0.072 kcal/mol | 2.3 ± 0.029 kcal/mol | 2.11 ± 0.08 kcal/mol
SAGGPLRIHISIENPNGKTLTYQIPLPPGDPEEAVKEIADEMKERGGTITSIEIENGVITITVRIPPSAGGS [r16_662_TrROS] | 2.32 ± 0.059 kcal/mol | 2.97 ± 0.046 kcal/mol | 2.8 ± 0.075 kcal/mol
SAGGGMRAVEVTVTLTVPSSTSVEEAVERVKAEFEAAGLEAEPVSVTVTPVPGSVTVTVRLRVLRPPASAGG [r13_351_JUSTAS] | 2.31 ± 0.04 kcal/mol | 3.48 ± 0.049 kcal/mol | 3.19 ± 0.063 kcal/mol
SAGGSAGGKITLLDEEEIEEVAKELGIDPENIRVIKVENEIIAILSKAKPLTPEKLKEIVEKLKSAGGSAGG [r6_243_JUSTAS] | 1.06 ± 0.021 kcal/mol | 0.686 ± 0.029 kcal/mol | 0.934 ± 0.055 kcal/mol
SAEVTSTFDPSTGILTVTVKLEDPETGKPIPAEEVAAEVEKEYPNSTILSIEPDPEGYVTITVKVPPELVSA [r9_87_JUSTAS] | 1.81 ± 0.075 kcal/mol | 3.16 ± 0.049 kcal/mol | 2.79 ± 0.039 kcal/mol
SAGGSAGGSAMKVVSVEAAPGQTVTVRVLVEDPETQELYELEVTVTVTAPEPVTVELPPEASAGGSAGGSAG [r3_271_TrROS_Hall] | 1.89 ± 0.15 kcal/mol | 2.47 ± 0.082 kcal/mol | 2.03 ± 0.23 kcal/mol
SAGGTIEITFMVRTPEEAEDMADMIARMLAREHGMKVTIDDVEVHEYKDPEDGQEYYMVEFRIEIKPSAGGS [r8_171_TrROS] | 3.23 ± 0.081 kcal/mol | 4.146 ± 0.04 kcal/mol | 3.88 ± 0.11 kcal/mol
SAGGSAGGRFRIKFKNGPVIEIDPNEPTIRFPDGSRRFPLNGDDAEEALEEFLSNGMKITEIEPSAGGSAGG [r6_340_TrROS] | -0.149 ± 0.2 kcal/mol | 0.99 ± 0.14 kcal/mol | 0.641 ± 0.16 kcal/mol
SAGTIIIPMKEIREELGYPPGSPPSQMRDRIRDLIRRLYPRGIRPTDIDIESNGDNWYITVDIKLPPGASAG [r14_158_TrROS] | 2.26 ± 0.058 kcal/mol | 2.76 ± 0.053 kcal/mol | 2.63 ± 0.11 kcal/mol
SAGGFNRKVTVRVKVPATGEEFEFEFDFEGLTLEEIKRKIKEEIKKKGIVLKPDNPVVIEITDLEEDPASAG [r5_230_JUSTAS] | 4.13 ± 0.34 kcal/mol | 3.86 ± 0.21 kcal/mol | 3.98 ± 0.33 kcal/mol
PVKVIEIRVEDPEKTAEEILAELRKKLPEEVKELRLFIVTPDGRVREIEPGETLADLLKPGDTVRIVVVERS [r1_56_TrROS_Hall] | 4.81 ± 0.34 kcal/mol | 5.66 ± 0.45 kcal/mol | > 6 kcal/mol

Sequence | folding stability dG unfold [1] | folding stability dG unfold [2] | folding stability dG unfold [3]
SAGGGQPVKITEIENIDPNNGKITFEIVDPDDGRPLKIKIPVQRRPNGKPYLQIEIEVDGKKWEIMFMSAGG [r13_993_TrROS] | 1.7 ± 0.17 kcal/mol | 1.67 ± 0.16 kcal/mol | 1.87 ± 0.15 kcal/mol
SAGGSAGGSAGGKKYEITRILSIEETEDGRIRILIETKTGIIEFDDISEIPPEIRELLGSAGGSAGGSAGGS [r10_748_TrMRF] | 2.82 ± 0.075 kcal/mol | 2.668 ± 0.021 kcal/mol | 2.73 ± 0.055 kcal/mol
SAGGSAGGSAGGMEVKVEEFVENGKPVVREFYPDSIKVTTYTFDENGNVTEKKEYVIPKESAGGSAGGSAGG [r7_722_JUSTAS] | 0.413 ± 0.061 kcal/mol | 0.92 ± 0.15 kcal/mol | 0.691 ± 0.17 kcal/mol
SAGEEKVEELARELAEELGVTITEVTVTEEGDTVTITVVNEETGERITITVTRNEDGEITVTITVEKLPSAG [r5_888_TrROS_Hall] | 2.61 ± 0.28 kcal/mol | 2.53 ± 0.17 kcal/mol | 2.62 ± 0.11 kcal/mol
SAGGWIPPGAEIEIDEIGPDGTITVKIKYPDGKPMSITMRRQRDKDGKRYIELYFPGSGRPIASFPIKSAGG [r13_527_TrROS] | 1.84 ± 0.03 kcal/mol | 1.57 ± 0.08 kcal/mol | 1.78 ± 0.09 kcal/mol
SAGGSAKKKTIELTIVIKIKKKPGETAEEIAKKILDALKKLLPPGAKIEIEVEVKDDYIVIKVKIESAGGSA [r15_739_TrROS_Hall] | 2.49 ± 0.14 kcal/mol | 2.76 ± 0.09 kcal/mol | 2.69 ± 0.13 kcal/mol
SAGGLNFEIIEVSPNHIIARFPDAGYIIMAKIKMEWKPKRDPENGKPRYEPKFKIDIHVIPLKPGQPISAGG [r13_322_TrROS] | 3.27 ± 0.09 kcal/mol | 4.66 ± 0.17 kcal/mol | 4.09 ± 0.12 kcal/mol
SAGGSAGGSKKKKKKIKIKIVVNEDELAKKLGLSKEEVRKLAKELADELKKKGYEVEIEIIPPSAGGSAGGS [r12_576_TrROS_Hall] | 1.87 ± 0.049 kcal/mol | 3.29 ± 0.054 kcal/mol | 2.89 ± 0.054 kcal/mol
SAGGSMTTTTEDKGDGRIVTTTIPEEGTVVTTTIFYEPGGPKVETKTTTTPVPPLPSTVVTSPNLASAGGSA [r2_375_JUSTAS] | 0.572 ± 0.093 kcal/mol | 1.15 ± 0.13 kcal/mol | 0.937 ± 0.34 kcal/mol
SAGGSAGGSAGGSKMYKIKIVNKKTKKVITVEVSEEDIEKALEAAKKAGVEKIEIEEVPSAGGSAGGSAGGS [r4_102_TrROS_Hall] | 2.03 ± 0.17 kcal/mol | 1.7 ± 0.12 kcal/mol | 1.82 ± 0.13 kcal/mol
SAGGSAGGSAGETITVKIVRFKPGSPEVRKLAEKLGLSEEEVEPVEVFTFKSEEELKAALSAGGSAGGSAGG [r11_83_TrROS_Hall] | -0.172 ± 0.12 kcal/mol | 0.471 ± 0.24 kcal/mol | 0.374 ± 0.16 kcal/mol
SAGGSAGGSAGGGSVSGSTPLTLPDSPVTRYSYPDSLVTFVPEKGVVITVSGSSTTVALSAGGSAGGSAGGS [r10_559_JUSTAS] | 0.825 ± 0.03 kcal/mol | 0.44 ± 0.077 kcal/mol | 0.654 ± 0.11 kcal/mol
SAGGSIEEIAETLRDLLAPPEYEVDVEVVEVEVDPINPRIKRVRLKATVYPPDGSSREIEFEIPFDELSAGG [r13_215_TrMRF] | 1.68 ± 0.042 kcal/mol | 1.77 ± 0.029 kcal/mol | 1.71 ± 0.062 kcal/mol
SAGMTTVEVTRTFPADVPVTEEDLELAEKEREEIAAELPESYVVTLASVTYERRPDSWTVTATFTITAPSAG [r5_121_JUSTAS] | 1.47 ± 0.017 kcal/mol | 2.11 ± 0.06 kcal/mol | 1.85 ± 0.045 kcal/mol
SAGGSAGGKKKIIKIKNKDGEYLIKVKTKDGKTVEFKKFKSLEEALKALPKEKIEKIEIIPLKKSAGGSAGG [r6_307_TrROS_Hall] | 1.64 ± 0.085 kcal/mol | 2.4 ± 0.1 kcal/mol | 2.06 ± 0.42 kcal/mol
